Data taken from patent US20230192860A1 (Bristol-Myers Squibb, published 2023).
Positions count from the first letter of the chain named.

B1: P1-061029.IgG1.3 (antibody)
heavy: EVQLVESGGGLVQPGKSLRLSCAASGFTLDDYAMHWVRQAPGKGLEWVSGINWNSANIGYADSVKGRFTISRDNAKNSLYLQMNSLRTEDTALYYCAKVPGYSGGWIDAFDVWGQGTMVTVSSASTKGPSVFPLAPSSKSTSGGTAALGCLVKDYFPEPVTVSWNSGALTSGVHTFPAVLQSSGLYSLSSVVTVPSSSLGTQTYICNVNHKPSNTKVDKRVEPKSCDKTHTCPPCPAPEAEGAPSVFLFPPKPKDTLMISRTPEVTCVVVDVSHEDPEVKFNWYVDGVEVHNAKTKPREEQYNSTYRVVSVLTVLHQDWLNGKEYKCKVSNKALPAPIEKTISKAKGQPREPQVYTLPPSREEMTKNQVSLTCLVKGFYPSDIAVEWESNGQPENNYKTTPPVLDSDGSFFLYSKLTVDKSRWQQGNVFSCSVMHEALHNHYTQKSLSLSPG
light: not shown
notes: IgG1.3; also called P1-061029 (parent); P1-061029-18
B2: P1-068761.IgG1.3 (antibody)
heavy: B1 heavy with D30E, Y32E, A56E, N57E, G104H, F110E
light: not shown
notes: IgG1.3; also called P1-068761-20; P1-068761 hIgG1.3f

What was measured:
[1] = molecular target: T1, monovalent hVISTA-ECD (amino acids 32-193 of SEQ ID NO: 1 with a 7xHis tail) (human, UniProt Q9H7M9 33-193); test: SPR 37C, pH 6.0 over pH 6.0
T1 construct: analyte of the SPR assays; also called huVISTA-His; human VISTA-ECD
T1 sequence (Q9H7M9 other isoform, or with tags, fused parts or gaps limits assumed): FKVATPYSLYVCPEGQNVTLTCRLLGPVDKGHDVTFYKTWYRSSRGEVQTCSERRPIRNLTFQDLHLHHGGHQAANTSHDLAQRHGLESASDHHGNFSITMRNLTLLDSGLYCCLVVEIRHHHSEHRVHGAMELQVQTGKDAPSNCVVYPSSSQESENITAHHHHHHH

[2] = molecular target: T1, monovalent hVISTA-ECD (amino acids …); test: SPR 37C, pH 6.45 over pH 6.0
Experimental: (§1) Human VISTA binding kinetics of P1-061029 (“ ‘029”), P1-068761 (“ ‘761”) and P1-068767 (“ ‘767”) (as IgG1.3 antibodies) were measured at pH values between pH 7.4 and pH 6.0, i.e., at pH 6.9 and pH 6.45 using a Biacore® T100 instrument (GE Healthcare). […] Antibodies were diluted to 25 nM in PBST pH 7.4, and were captured across active biosensor flow cells at 5 ul/min for 45 seconds. A concentration series of 100 - 0.78 nM monovalent hVISTA-ECD (SEQ ID NO: 325) was prepared pH 7.4, 6.9, 6.45 and 6.0 running buffers, and was injected over the captured antibodies at 40 ul/min to measure association and dissociation. Two 15 second injections of 10 mM glycine pH 1.5 were used to regenerate the Protein A capture surface between assay cycles. Rate constants ka (kₒₙ) and kd (koff) were derived from reference flow cell and 0 nM blank-subtracted sensorgrams, and were fit to a 1:1 binding model in Biacore® T200 Evaluation Software v.2.0. The affinity constant, KD was calculated as the ratio of rate constants koff/kₒₙ for each VISTA antibody. Ratios of koff and KD at each pH relative to pH 6.0 were calculated to evaluate how the VISTA koff and KD change as the buffer pH shifts to physiological, and are shown in Table 7. […] As the buffer pH shifts from acidic to physiological, VISTA koff and KD both weaken for ‘761 and ‘767. Physiological pH data for ‘761 and ‘767 for comparison is referenced from Table 7 and noted with an asterisk (*).

[3] = molecular target: T2, avidin (ThermoFisher Scientific catalog #21128) (UniProt P02701 25-152); test: SPR 25C, Ab on Protein A, pH 6 and pH 7.4
T2 construct: pI control protein
T2 sequence (P02701 25-152 limits assumed): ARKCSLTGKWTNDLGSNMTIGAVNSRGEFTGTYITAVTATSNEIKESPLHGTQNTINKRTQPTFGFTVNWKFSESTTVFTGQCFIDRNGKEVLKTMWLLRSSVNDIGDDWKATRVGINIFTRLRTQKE

[4] = molecular target: T3, BSA (Calbiochem catalog #126593) (UniProt P02769 25-607); test: SPR 25C, Ab on Protein A, pH 6 and pH 7.4
T3 construct: pI control protein
T3 sequence (P02769 25-607 limits assumed): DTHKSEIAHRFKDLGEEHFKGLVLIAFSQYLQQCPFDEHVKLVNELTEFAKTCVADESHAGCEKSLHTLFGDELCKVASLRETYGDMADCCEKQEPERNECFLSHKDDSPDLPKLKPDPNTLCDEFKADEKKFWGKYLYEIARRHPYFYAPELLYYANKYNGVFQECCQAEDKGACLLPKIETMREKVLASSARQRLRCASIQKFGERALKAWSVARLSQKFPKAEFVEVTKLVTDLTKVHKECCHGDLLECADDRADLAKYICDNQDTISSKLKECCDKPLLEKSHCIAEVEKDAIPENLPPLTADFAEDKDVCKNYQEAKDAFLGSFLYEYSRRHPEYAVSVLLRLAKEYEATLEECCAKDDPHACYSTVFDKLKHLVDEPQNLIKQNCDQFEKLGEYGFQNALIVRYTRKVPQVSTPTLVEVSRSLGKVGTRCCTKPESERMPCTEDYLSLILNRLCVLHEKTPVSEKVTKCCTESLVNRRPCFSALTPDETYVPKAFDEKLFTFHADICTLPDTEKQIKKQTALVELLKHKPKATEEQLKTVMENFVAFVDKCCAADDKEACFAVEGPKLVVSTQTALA

[5] = molecular target: T1, monovalent hVISTA-ECD (amino acids …); test: SPR 37C, Ab on Protein A, hVISTA-ECD 100-0.78 nM, pH 6.0
Experimental: as §1

[6] = molecular target: T1, monovalent hVISTA-ECD (amino acids …); test: SPR 37C, Ab on Protein A, hVISTA-ECD 100-0.78 nM, pH 6.9
Experimental: as §1

[7] = molecular target: T1, monovalent hVISTA-ECD (amino acids …); test: SPR 37C, Ab on Protein A, hVISTA-ECD 1600-0.78 nM, pH 7.4
Experimental: For this assay, ‘029, ‘761 and ‘767were reformatted as hIgG1f isotype and were expressed as both standard hIgG1f and in hIgG1f afucosylated formats to compare against the hIgG1.3f Fc. An SPR kinetics assay was conducted to measure koff and KD binding affinity measurements for VISTA Abs at acidic and physiological pH using a Biacore® T100 instrument (GE Healthcare). […] Antibodies were diluted to 25 nM in PBST pH 7.4, and were captured across active biosensor flow cells at 5 ul/min for 45 seconds. A concentration series of 1600 - 0.78 nM (pH 7.4) and 100 - 0.78 nM (pH 6.0) monovalent hVISTA-ECD (SEQ ID NO: 325) was prepared running buffer, and was injected over the captured antibodies at 40 ul/min to measure association and dissociation. Two 15 second injections of 10 mM glycine pH 1.5 were used to regenerate the Protein A capture surface between assay cycles. Rate constants ka (kₒₙ) and kd (koff) were derived from reference flow cell and 0 nM blank-subtracted sensorgrams, and were fit to a 1:1 binding model in Biacore® T200 Evaluation Software v.2.0. The affinity constant, KD was calculated as the ratio of rate constants koff/kₒₙ for each VISTA antibody. Ratios of koff and KD at pH 7.4 / pH 6.0 were calculated to compare off-rate and affinity improvement at acidic pH relative to physiological pH.

[8] = molecular target: T1, monovalent hVISTA-ECD (amino acids …); test: SPR 37C, Ab on Protein A, hVISTA-ECD 50-5 nM, pH 6.0, average
How it was run: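 Biacore T100 at 37C: antibodies (IgG1.3 format, 25 nM in PBST pH 7.4) captured on Protein A, then 50 - 5 nM monovalent hVISTA-ECD injected in pH 7.4 or 6.0 running buffer. Reference- and blank-subtracted sensorgrams fit to 1:1 model; KD = koff/kon.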

| Binder | KD ratio to pH 6.0 [1] | koff ratio to pH 6.0 [1] | KD ratio to pH 6.0 [2] | koff ratio to pH 6.0 [2] | binding result [3] | binding result [4] | Kd [5] | koff [5] | kon [5] | Kd [6] | koff [6] | kon [6] | Kd [7] | koff [7] | kon [7] | Kd [8] | koff [8] | kon [8] |
| --- | --- | --- | --- | --- | --- | --- | --- | --- | --- | --- | --- | --- | --- | --- | --- | --- | --- | --- |
| B1 | 1 | 1 | 2.7 | 0.7 | no binding (tested: 10 RU; analyte 100-10 nM) | no binding (tested: 10 RU; analyte 100-10 nM) | 2 nM | 0.0057 s⁻¹ | 2.9e+06 M⁻¹ s⁻¹ | 14 nM | 0.0057 s⁻¹ | 410000 M⁻¹ s⁻¹ | 42 nM | 0.0068 s⁻¹ | 160000 M⁻¹ s⁻¹ | 3.6 nM | 0.0058 s⁻¹ | 1.6e+06 M⁻¹ s⁻¹ |
| B2 | 1 | 1 | 18.4 | 3.2 | no binding (tested: 10 RU; analyte 100-10 nM) | no binding (tested: 10 RU; analyte 100-10 nM) | 1.1 nM | 0.00066 s⁻¹ | 600000 M⁻¹ s⁻¹ | 190 nM | 0.0089 s⁻¹ | 48000 M⁻¹ s⁻¹ | 11000 nM | 0.042 s⁻¹ | 3800 M⁻¹ s⁻¹ | 3.8 nM | 0.0014 s⁻¹ | 380000 M⁻¹ s⁻¹ |
